Earlier results as cited in patent US20170319567A1, “Use of CCR3-Inhibitors” (Alkahest, Inc., priority 2013, published 2017).

Test system: eosinophils
Details: EoE patients, anti IL-5 therapy

B1: Mepolizumab: anti IL-5 antibody (antibody, chains of the INN, looked up, V domains shown)
VH: QVTLRESGPALVKPTQTLTLTCTVSGFSLTSYSVHWVRQPPGKGLEWLGVIWASGGTDYNSALMSRLSISKDTSRNQVVLTMTNMDPVDTATYYCARDPPSSLLRLDYWGRGTPVTVSS
VL: DIVMTQSPDSLAVSLGERATINCKSSQSLLNSGNQKNYLAWYQQKPGQPPKLLIYGASTRESGVPDRFSGSGSGTDFTLTISSLQAEDVAVYYCQNVHSFPFTFGGGTKLEIK
  lowering of peripheral eosinophils: 5 fold
  reduction in biopsy eosinophils: 2 fold
